In patent US20160311863A1 (Affibody, published 2016):
Starred links: 1 amine or outer side, 2 acyl side, 3 side chain; linkers in the order of their positions; H or OH if unused. Positions of bridges follow the written chain, without caps; N, C: chain ends. No end group written: not given here. mXylylene = c1cc(C[*:1])cc(C[*:2])c1; oXylylene = c1ccc(C[*:2])c(C[*:1])c1

What was measured:
[1] = biological target: T1, human serum albumin (human, UniProt P02768 25-609); assay: SPR (ProteOn XPR36), HSA immobilized, 1:1 Langmuir fit, triplicate
T1 construct: Immobilized on the sensor chip (2500 RU in screening; 1100-1600 RU in kinetics); also called HSA
Experimental: (§1) Biosensor binding analyses were performed on a ProteOn XPR36 instrument (Bio-Rad) at 25° C. using PBST (150 mM NaCl, 8 mM Na₂HPO₄, 2 mM NaH₂PO₄, 0.005% Tween20, pH 7.4) as running buffer at a flow rate of 50 μl min⁻¹. An injection of 30 μl of 20 mM HCl at a flow rate of 100 μl min⁻¹ was used for chip regeneration. In a screening experiment, the binding of all polypeptide variants to human serum albumin (HSA) was investigated. The proteins were diluted to 50 nM in running buffer and injected over a chip surface with 2500 RU of immobilized HSA. The association was studied for 300 s and the dissociation was followed for 7200 s (2 h). For data analysis, all samples were double referenced; the signal from a blank surface was first subtracted from the signal from the respective protein, and secondly the signal from an injection of PBST (running buffer) over the HSA surface was subtracted.
The HSA binding kinetics of PEP18049_CL and the reference protein PEP07830 were further studied using a sensor chip with HSA immobilized on three different surfaces to between 1100 RU and 1600 RU. The proteins were diluted in running buffer (0.8, 1.6, 3.3, and 6.6 nM for PEP18049_CL and 1.0, 2.0, 4.0 and 8.0 nM for PEP07830) and injected over the three HSA surfaces and thus giving binding curves in triplicate. The association time was 300 s and the dissociation was followed for 36 000 s (10 h).
(§2) The kinetic parameters of the binding of PEP18049_CL and the reference protein PEP07830 to HSA were obtained from fitting the obtained sensorgrams to a 1:1 Langmuir binding model using the ProteOn Manager software version 3.1.0.6 (Bio-Rad). The average association rate constant (kₐ (M⁻¹ s⁻¹) and dissociation rate constant (kd (s⁻¹)) with standard deviation were calculated. From the average kₐ and the kd the dissociation equilibrium constant (KD (M)) was calculated (KD=kd/kₐ).

[2] = biological target: T1, human serum albumin; assay: SPR (ProteOn XPR36), HSA immobilized, KD=kd/ka
Experimental: as §1, with “subtracted. […]” for “subtracted.”
as §2

[3] = biological target: T1, human serum albumin; assay: SPR (ProteOn) screening, 50 nM over immobilized HSA
Experimental: as §1

[4] = biological target: T1, human serum albumin; assay: SPR (ProteOn XPR36), polypeptide injected over immobilized HSA
Experimental: as §1

B1: PEP18049_CL (designed binder)
chain: LAEAKEAANAELDSYGCSDFYKRLIDKAKTVEGVEALKDAILAAKP
modifications: not fully specified; N-terminal leucine capped with acetic anhydride (acetylated); chloroacetylated Lys45 joined to the thiol of Cys17 by a thioether bond (intramolecular crosslink Cys17-Lys45); synthesised on Rink Amide resin
notes: also called crosslinked PEP18049
[1]
  koff: 1.5e-05 s⁻¹
  kon: 620000 M⁻¹ s⁻¹
[2]
  Kd: 0.024 nM

B2: PEP07830 (designed binder)
chain: LAEAKEAANAELDSYGVSDFYKRLIDKAKTVEGVEALKDAILAALP-NH2
notes: Linear (non-crosslinked) control, made by solid phase peptide synthesis
[1]
  koff: 4.1e-06 s⁻¹
  kon: 190000 M⁻¹ s⁻¹
[2]
  Kd: 0.021 nM

B3: PEP14788_CL_A (designed binder)
chain: LAEAKEAANAELDSYGCSDFYKRLIDKAKTVEGVEALKDAILAACP-NH2
modifications: linker 17-45 via oXylylene
notes: Chemically synthesised Cys-Cys crosslinked variant; also called PEP14788 crosslinked with linker A (o-xylylene dibromide)
[3]
  binding result: binds

B4: PEP14788_CL_B (designed binder)
chain: LAEAKEAANAELDSYGCSDFYKRLIDKAKTVEGVEALKDAILAACP-NH2
modifications: linker 17-45 via mXylylene
notes: Chemically synthesised Cys-Cys crosslinked variant; also called PEP14788 crosslinked with linker B (m-xylylene dibromide)
[3]
  binding result: binds

B5: PEP14788_CL_E (designed binder)
chain: LAEAKEAANAELDSYGCSDFYKRLIDKAKTVEGVEALKDAILAACP-NH2
modifications: linker 17-45 via 2,6‑bis(bromomethyl)pyridine
notes: Chemically synthesised Cys-Cys crosslinked variant; also called PEP14788 crosslinked with linker E (2,6-bis(bromomethyl)pyridine)
[3]
  binding result: binds

B6: PEP18050_CL (designed binder)
chain: LAEAKEAANAELDSYGVSDFYKRLIDKCKTVEGVEALKDAILAALP
modifications: not fully specified; chloroacetylated Lys5 joined to the thiol of Cys28 by a thioether bond (intramolecular crosslink Lys5-Cys28); synthesised on Rink Amide resin
notes: Control crosslinked variant; also called crosslinked PEP18050
[4]
  binding result: no binding (tested: 50 nM)

B7: PEP18051_CL (designed binder)
chain: CAEAKEAANAELDSYGVSDFYKRLIDKAKTVEGVEALKDAILAALP
modifications: not fully specified; chloroacetylated Lys29 joined to the thiol of Cys1 by a thioether bond (intramolecular crosslink Cys1-Lys29); synthesised on Rink Amide resin
notes: Control crosslinked variant; also called crosslinked PEP18051
[3]
  binding result: binds

B8: PEP18052_CL (designed binder)
chain: LAEAKEAANAELDSYGCSDFYKRLIDKCKTVEGVEALKDAILAAKP
modifications: not fully specified; two thioether crosslinks between chloroacetylated lysines and cysteines: Lys5-Cys28 and Cys17-Lys45; synthesised on Rink Amide resin
notes: Control, double crosslinked variant; the expected mass was found in two HPLC peaks that behaved alike; also called crosslinked PEP18052
[4]
  binding result: no binding (tested: 50 nM)

B9: PEP14789_CL_A (designed binder)
chain: GSSLAEAKEAANAELDSYGCSDFYKRLIDKAKTVEGVEALKDAILAACP
modifications: linker 20-48 via oXylylene
notes: Recombinantly produced in E. coli; same as PEP14788 but with an N-terminal GSS (expressed with an MGSS extension); The crosslink positions are printed as Cys17-Cys45, probably counted without the GSS; also called PEP14789 crosslinked with linker A (o-xylylene dibromide)
[3]
  binding result: binds

B10: PEP14789_CL_B (designed binder)
chain: GSSLAEAKEAANAELDSYGCSDFYKRLIDKAKTVEGVEALKDAILAACP
modifications: linker 20-48 via mXylylene
notes: Recombinantly produced in E. coli; same as PEP14788 but with an N-terminal GSS (expressed with an MGSS extension); The crosslink positions are printed as Cys17-Cys45, probably counted without the GSS; also called PEP14789 crosslinked with linker B (m-xylylene dibromide)
[3]
  binding result: binds
